Measured values taken from the supplement of paper PMC11246515.
± gives the standard deviation of the averaged measurements.

Experiment: total protein half-life in vivo (active degradation + dilution); higher = more stable protein
[1] = E. coli NCM3722 delta-clpP delta-lon delta-hslV, growth: N-lim chemostat, doubling time 6 h
[2] = E. coli NCM3722 delta-clpP, growth: N-lim chemostat, doubling time 6 h
[3] = E. coli NCM3722 delta-hslV, growth: N-lim chemostat, doubling time 6 h
[4] = E. coli NCM3722 delta-lon, growth: N-lim chemostat, doubling time 6 h
[5] = E. coli NCM3722 delta-smpB, growth: N-lim chemostat, doubling time 6 h
[6] = wild type E. coli NCM3722, growth: C-lim chemostat, doubling time 6 h
[7] = wild type E. coli NCM3722, growth: C-lim chemostat, doubling time 12 h
[8] = wild type E. coli NCM3722, growth: N-lim chemostat, doubling time 6 h
[9] = wild type E. coli NCM3722, growth: P-lim chemostat, doubling time 6 h
[10] = wild type E. coli NCM3722, growth: P-lim chemostat, doubling time 12 h
[11] = wild type E. coli NCM3722, growth: C-lim chemostat, doubling time 3 h
[12] = wild type E. coli NCM3722, growth: N-lim chemostat, doubling time 12 h

Row | Sequence | total protein half-life in vivo [1] [h] | total protein half-life in vivo [2] [h] | total protein half-life in vivo [3] [h] | total protein half-life in vivo [4] [h] | total protein half-life in vivo [5] [h] | total protein half-life in vivo [6] [h] | total protein half-life in vivo [7] [h] | total protein half-life in vivo [8] [h] | total protein half-life in vivo [9] [h] | total protein half-life in vivo [10] [h] | total protein half-life in vivo [11] [h] | total protein half-life in vivo [12] [h]
1 | MCGRFAQSQTREDYLALLAEDIERDIPYDPEPIGRYNVAPGTKVLLLSERDEHLHLDPVFWGYAPGWWDKPPLINARVETAATSRMFKPLWQHGRAICFADGWFEWKKEGDKKQPFFIYRADGQPIFMAAIGSTPFERGDEAEGFLIVTAAADQGLVDIHDRRPLVLSPEAAREWMRQEISGKEASEIAASGCVPANQFSWHPVSRAVGNVKNQGAELIQPV | 4.83 ± 0.49 | 4.014 ± 0.026 | 4.54 | 4.55 ± 0.27 | 3.52 ± 0.22 | 5.39 ± 0.18 | 9.42 ± 0.51 | 3.45 ± 0.065 | 5.07 ± 0.74 | 9.67 ± 1.4 |  | 
2 | MCTTCGCGEGNLYIEGDEHNPHSAFRSAPFAPAARPKMKITGIKAPEFTPSQTEEGDLHYGHGEAGTHAPGMSQRRMLEVEIDVLDKNNRLAERNRARFAARKQLVLNLVSSPGSGKTTLLTETLMRLKDSVPCAVIEGDQQTVNDAARIRATGTPAIQVNTGKGCHLDAQMIADAAPRLPLDDNGILFIENVGNLVCPASFDLGEKHKVAVLSVTEGEDKPLKYPHMFAAASLMLLNKVDLLPYLNFDVEKCIACAREVNPEIEIILISATSGEGMDQWLNWLETQRCA [P0AAN3] | 4.03 ± 0.57 | 3.15 | 2.72 ± 0.035 | 3.48 ± 0.13 | 3.079 ± 0.0096 | 4.19 ± 0.074 | 6.66 ± 0.1 | 3.14 ± 0.63 | 3.69 ± 0.052 | 7.22 ± 0.56 | 2.29 ± 0.11 | 3.83 ± 0.63
3 | MDALELLINRRSASRLAEPAPTGEQLQNILRAGMRAPDHKSMQPWHFFVIEGEGRERFSAVLEQGAIAAGSDDKAIDKARNAPFRAPLIITVVAKCEENHKVPRWEQEMSAGCAVMAMQMAAVAQGFGGIWRSGALTESPVVREAFGCREQDKIVGFLYLGTPQLKASTSINVPDPTPFVTYF [P0ACY1] | 5.15 ± 0.18 | 5.29 ± 0.85 | 4.55 ± 0.042 | 4.85 ± 0.25 | 4.85 ± 0.27 | 5.49 ± 0.1 | 9.81 ± 4.2 | 4.7 ± 0.14 | 5.6 ± 0.17 | 11.6 ± 1.3 | 2.91 ± 0.03 | 7.1 ± 0.14
4 | MDALSRLLMLNAPQGTIDKNCVLGSDWQLPHGAGELSVIRWHALTQGAAKLEMPTGEIFTLRPGNVVLLPQNSAHRLSHVDNESTCIVCGTLRLQHSARYFLTSLPETLFLAPVNHSVEYNWLREAIPFLQQESRSAMPGVDALCSQICATFFTLAVREWIAQVNTEKNILSLLLHPRLGAVIQQMLEMPGHAWTVESLASIAHMSRASFAQLFRDVSGTTPLAVLTKLRLQIAAQMFSRETLPVVVIAESVGYASESSFHKAFVREFGCTPGEYRERVRQLAP |  |  | 6.33 | 6.04 | 5.156 ± 0.014 | 5.12 ± 3.4 | 11.8 ± 2.5 | 5.92 ± 0.51 | 5.4 ± 0.16 | 12.4 ± 1.3 |  | 
5 | MDAMKYNDLRDFLTLLEQQGELKRITLPVDPHLEITEIADRTLRAGGPALLFENPKGYSMPVLCNLFGTPKRVAMGMGQEDVSALREVGKLLAFLKEPEPPKGFRDLFDKLPQFKQVLNMPTKRLRGAPCQQKIVSGDDVDLNRIPIMTCWPEDAAPLITWGLTVTRGPHKERQNLGIYRQQLIGKNKLIMRWLSHRGGALDYQEWCAAHPGERFPVSVALGADPATILGAVTPVPDTLSEYAFAGLLRGTKTEVVKCISNDLEVPASAEIVLEGYIEQGETAPEGPYGDHTGYYNEVDSFPVFTVTHITQREDAIYHSTYTGRPPDEPAVLGVALNEVFVPILQKQFPEIVDFYLPPEGCSYRLAVVTIKKQYAGHAKRVMMGVWSFLRQFMYTKFVIVCDDDVNARDWNDVIWAITTRMDPARDTVLVENTPIDYLDFASPVSGLGSKMGLDATNKWPGETQREWGRPIKKDPDVVAHIDAIWDELAIFNNGKSA [P0AAB4] | 6.47 ± 0.5 | 6.032 ± 0.049 | 6.88 ± 0.78 | 6.27 ± 0.71 | 6.38 ± 0.54 | 6.29 ± 0.21 | 11.3 ± 0.45 | 5.82 ± 0.23 | 5.99 ± 0.093 | 12.5 ± 0.62 | 2.98 ± 0.37 | 11.4 ± 0.32
6 | MDDLTAQALKDFTARYCDAWHEEHKSWPLSEELYGVPSPCIISTTEDAVYWQPQPFTGEQNVNAVERAFDIVIQPTIHTFYTTQFAGDMHAQFGDIKLTLLQTWSEDDFRRVQENLIGHLVTQKRLKLPPTLFIATLEEELEVISVCNLSGEVCKETLGTRKRTHLASNLAEFLNQLKPLL [P0A8U0] | 4.63 ± 0.19 |  | 3.71 ± 0.25 | 5.62 ± 1.2 | 4.15 ± 0.19 | 4.21 ± 1.8 | 9.71 | 3.72 | 5.7 ± 0.28 | 12.7 ± 2.7 | > 4 | 7.43 ± 1.4
7 | MDFNLNDEQELFVAGIRELMASENWEAYFAECDRDSVYPERFVKALADMGIDSLLIPEEHGGLDAGFVTLAAVWMELGRLGAPTYVLYQLPGGFNTFLREGTQEQIDKIMAFRGTGKQMWNSAITEPGAGSDVGSLKTTYTRRNGKIYLNGSKCFITSSAYTPYIVVMARDGASPDKPVYTEWFVDMSKPGIKVTKLEKLGLRMDSCCEITFDDVELDEKDMFGREGNGFNRVKEEFDHERFLVALTNYGTAMCAFEDAARYANQRVQFGEAIGRFQLIQEKFAHMAIKLNSMKNMLYEAAWKADNGTITSGDAAMCKYFCANAAFEVVDSAMQVLGGVGIAGNHRISRFWRDLRVDRVSGGSDEMQILTLGRAVLKQYR | > 8 |  |  | 3.62 ± 0.096 | 2.77 ± 0.42 | 3.58 | 7.41 ± 1.4 |  | 5.45 ± 0.16 | 11.5 ± 1.7 | 2.46 | 
8 | MDHLPIFCQLRDRDCLIVGGGDVAERKARLLLDAGARLTVNALAFIPQFTAWADAGMLTLVEGPFDESLLDTCWLAIAATDDDALNQRVSEAAEARRIFCNVVDAPKAASFIMPSIIDRSPLMVAVSSGGTSPVLARLLREKLESLLPLHLGQVAKYAGQLRGRVKQQFATMGERRRFWEKLFVNDRLAQSLANNDQKAITETTEQLINEPLDHRGEVVLVGAGPGDAGLLTLKGLQQIQQADVVVYDRLVSDDIMNLVRRDADRVFVGKRAGYHCVPQEEINQILLREAQKGKRVVRLKGGDPFIFGRGGEELETLCNAGIPFSVVPGITAASGCSAYSGIPLTHRDYAQSVRLITGHLKTGGELDWENLAAEKQTLVFYMGLNQAATIQQKLIEHGMPGEMPVAIVENGTAVTQRVIDGTLTQLGELAQQMNSPSLIIIGRVVGLRDKLNWFSNH [P0AEA8] | 5.19 ± 0.22 | 4.33 ± 0.24 | 4.17 ± 0.56 | 5.23 ± 0.94 | 4.7 ± 0.87 | 5.47 ± 0.28 | 10.12 ± 0.019 | 4.39 ± 0.22 | 6.43 ± 1.1 | 13.6 ± 2.6 | 3.42 ± 0.48 | 7.57 ± 0.15
9 | MDIIFYHPTFDTQWWIEALRKAIPQARVRAWKSGDNDSADYALVWHPPVEMLAGRDLKAVFALGAGVDSILSKLQAHPEMLNPSVPLFRLEDTGMGEQMQEYAVSQVLHWFRRFDDYRIQQNSSHWQPLPEYHREDFTIGILGAGVLGSKVAQSLQTWRFPLRCWSRTRKSWPGVQSFAGREELSAFLSQCRVLINLLPNTPETVGIINQQLLEKLPDGAYLLNLARGVHVVEDDLLAALDSGKVKGAMLDVFNREPLPPESPLWQHPRVTITPHVAAITRPAEAVEYISRTIAQLEKGERVCGQVDRARGY | 5.02 ± 0.051 | 4.58 ± 0.51 | 5.71 ± 1.3 | 4.67 ± 0.34 | 4.43 ± 0.24 | 5.64 ± 0.55 | 10.3 ± 1.4 | 4.45 ± 0.25 | 5.821 ± 0.027 | 11 ± 0.45 | 2.69 ± 0.43 | 7.3 ± 0.49
10 | MDIIGGQHLRQMWDDLADVYGHKTALICESSGGVVNRYSYLELNQEINRTANLFYTLGIRKGDKVALHLDNCPEFIFCWFGLAKIGAIMVPINARLLCEESAWILQNSQACLLVTSAQFYPMYQQIQQEDATQLRHICLTDVALPADDGVSSFTQLKNQQPATLCYAPPLSTDDTAEILFTSGTTSRPKGVVITHYNLRFAGYYSAWQCALRDDDVYLTVMPAFHIDCQCTAAMAAFSAGATFVLVEKYSARAFWGQVQKYRATVTECIPMMIRTLMVQPPSANDQQHRLREVMFYLNLSEQEKDAFCERFGVRLLTSYGMTETIVGIIGDRPGDKRRWPSIGRVGFCYEAEIRDDHNRPLPAGEIGEICIKGIPGKTIFKEYFLNPQATAKVLEADGWLHTGDTGYRDEEDFFYFVDRRCNMIKRGGENVSCVELENIIAAHPKIQDIVVVGIKDSIRDEAIKAFVVLNEGETLSEEEFFRFCEQNMAKFKVPSYLEIRKDLPRNCSGKIIRKNLK | 5.31 |  | 6.57 |  | 3.61 ± 0.13 |  | 11.3 | 4.98 |  | 10.7 ± 0.12 |  | 7.9
11 | MDIISVALKRHSTKAFDASKKLTPEQAEQIKTLLQYSPSSTNSQPWHFIVASTEEGKARVAKSAAGNYVFNERKMLDASHVVVFCAKTAMDDVWLKLVVDQEDADGRFATPEAKAANDKGRKFFADMHRKDLHDDAEWMAKQVYLNVGNFLLGVAALGLDAVPIEGFDAAILDAEFGLKEKGYTSLVVVPVGHHSVEDFNATLPKSRLPQNITLTEV | 2.56 ± 0.26 | 1.66 ± 0.42 | 1.405 ± 0.01 | 2.01 ± 0.14 | 1.62 ± 0.067 | 3.38 ± 0.86 | 5.94 ± 0.37 | 1.58 ± 0.097 | 4.45 ± 0.91 | 7.04 ± 0.45 | 2.72 ± 0.21 | 2.17 ± 0.057
12 | MDINNKARIHWACRRGMRELDISIMPFFEHEYDSLSDDEKRIFIRLLECDDPDLFNWLMNHGKPADAELEMMVRLIQTRNRERGPVAI | 5.79 ± 0.24 |  |  |  |  |  | 6.71 |  | 4.97 | 11.3 ± 2.2 | 3 | 
